From the nanobody polyreactivity screen of Harvey et al. (2022)

Assay: yeast display, Sf9 membrane polyspecificity reagent, FACS + sequencing; frameworks hold sequencing errors
In short: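 Sorting gates, low and high (top ~1%), were placed on anti-HA fluorescence to track expression and on streptavidin fluorescence to track reagent binding. A clone's polyreactivity label is taken from the gate it came out of. The reagent was 10% biotinylated, detergent-solubilized Sf9 membrane, applied for 1 hour at 4 °C to galactose-induced yeast display cells.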

Sequence | polyreactivity (PSR sort gate)
QVQLVESGGGLVQAGGSLRLSCAASGRIFIYNVMGWYRQAPGKERELVATISTGGTTNYADSVKGRFTISRDNAKNTVYLQMNSLKPEDTAVYYCNRGSGYWYLPAVKYDHWGQGTQVTVSS | low polyreactivity
QVQLVESGGGLVQSGGSLRLSCADSVRTFNYYAMGWYRQAPGKERELVATISWSGVSTRYADSVKGRFTISRDNEKNTVYLQMNSLKPEDTAVYYCNAGYSKRSFYSAYGYWGQGTQVTVSS | high polyreactivity
QVQLVESGGGLVQAGGSLRLSCAASGRIFQGYAMGWYRQAPGKERELVAAITRSGGSTYYADSVKGRFTISRDNAKNTVYLQMNSLKPEDTAVYYCAASHYGLLEYWGQGTQVTVSS | low polyreactivity
QVQLVEAGGRLVQAGGSLRLSCAASGITFTYYAMGGYRQPPGKDMELVAAISWSGGSTDYADSVKGRFTISRDNAKNTVYLQMNSLKPEDTAFYYCAATFSRFAYYYWGQGTPVTVSS | high polyreactivity
QVQLHESGGGLVQAGGSLRLSCAASGTISYAGPMGWYRQAPGKEREFVAGIGVGSNTNYADSVKGRYTIIRDNAKNTVYLQMNSLKPEDTAVYYCAVGGYAPLGRPDWGQGTQVTVRS | low polyreactivity
QVQLVESGGGLDQAGGSLRLSCAASGSIFGTNTMGWYRQSPGKERELVAAIRLSDSSTYYADSVKGRFTISRDNAKNTVYLQMNSLKPEDTAVYYCAVDYRAYHYYRYDYWGQGTQVTVSS | low polyreactivity
QVQLVESGGGLVQAGGSLRLSCAASGSTFGTYAMGWYRQAPGKERELVAAISRRGGSTYYADSVKGRFTISRDNAKNTVYLQMNSLKPEDTAVDYCAARNFHPDDNYWGQGTQVTVSS | high polyreactivity
QVQLVETGGGLVQAGGSLRLSCDASGRTFRIYGMGWYRQAPGKERELVAAISYSTGGTYYADSVKGRFTISRDNAKNTVYLQMTSLKPEDTAVYYCAAVVYAYLYADYDYWGQGTQVTVSS | low polyreactivity
QVQLVESGGGLVQAGGSLRLSCAASGRTFDYNAMGWYRQAPGKERELFAAISQSGGRTYYADSVKGRFTISRDNAKNTVYLQMYSLKPVDTAVYYCAAEAYGNRDYWGQGTQVTVSS | low polyreactivity
QVQLVESGGGLVQAGGSLRLSCAASGSTFPLYAMGWYRQAPGKERELVATISWGDGSTYYADSVKGRFTISRDTAKNTVYLQMNSLNPEETAVYYCAEDEYPDATTDATDKYYYWGQGTQVTVST | low polyreactivity
QVQLVESGGGLVQAGGSLRLSCAASGFTFYDNAMGWYRQAPGKERELVAAINWRSGSTYYADSVKGRFTISRDNAKNTVYLQMNSLKPEDTAVYYCAAGLVFHYYAPKSYYLGYDYWGQGTQVTVSS | low polyreactivity
QVQLVESGGGLVQAGGSLRLTCAASGFTFGSYAMGWNRQAPGKERELVAVITRSGRTNYADSVKGRFTISRDNAKNTVYLQMNSLKPEDTAVYYCNADDVDDEVSPDLTEMDYWGQGTQVTVSS | low polyreactivity
QVHLVESGGGLVQAGGSLRLSCAASGITFNSNAMGWYRQAPGKERELVAAITVSGGNTYYADSVKGRFTISRDNAKNTVYLQMYSLKPEDTAVYYCNTASDVSWYVHYYYWRQGTQVTVSS | low polyreactivity
QVQLVESVGGLVQAGGSLRLSCAASGSIFRRYAMGWYRQAPGKERELVAGISSGGYTNYADSVKGRFTISRDNAKNTVYLQMNSLKPEDTAVYYCAAKQYRYVRYRPVDYWGQGTQVTVSS | high polyreactivity
QFQLVESGGGFVQAGGSLRLSCAASGSIFLYNDMGWYRQAPGKERELVPAITSDGSTNYADSVKGRFTISRDNAKNTFYLQMNSLKPEDTAVYYCAADALWFYLNWYYGGTAYGYWGQGTQVTVSS | low polyreactivity
QVQLVESGGGLVQAGGSLRLSCAASGVIFSFYAMGWDREAPGKERELVAAISSSGSTNYADSVKGRFTISRDNAKNTVYLQMNSLKPEDTAVYYCNTYFRYFSFYGRPFDYWGQGTQVTVSS | high polyreactivity
QVQLVESGGGLVQAGGSLRLSCAASGNTLASYAMGWYRQAPGKEREFVAAITNRSGSTYYADSVKGRFTISRDNAKNTVYLQMNSLKPEDTAVYYCAARYGRRSGQMGYWGQGTQVTVSS | high polyreactivity
QVQLVESGGGLVQAGGSLRLSCAASGFTIFLNAMGWYRQAPGKERELVAAITVSGSSTYYADSVKGRFTISRDNAKNTVYLQMNSLKPEDTAVYYCNAEIYSPYYTYDYWGQGTQVTVSS | low polyreactivity
QVQLVESGGGLVQAGGSLRLSCAASGSIFLGNSMGWYRQAPGKERELVAAISSITGRTYYADSVKGRFTISRDNAKNTVYLQMNSLKPEDTAVYYCNKVKRSFIVNTDDYWGQGTQVTVSS | high polyreactivity
QVQLVESGGGLVQAGGSLRLICAASGSIFFYYAMGWYRQAPGKERELVAAITKIGVGTFYADSVKGRFTISRDNAKNTVYLQMNSLKPEDTAVYYCNARTAWEGYDYWGQGTQVTVSS | low polyreactivity
QVQLVESGGGLVQAGGSLRLSCAASGSTFYYYVMGWYRQAPGKERELVAVISKSGGSTRYADSVKGRFTISRDNAKNTVYLQMNSLKPEDTAVYYCAADGLRLVPGYKYDYWGQGTQVTVSS | high polyreactivity
QVQLVESGGGLVQAGGSLRLSCAASGSTFSYYAMGWYRQAPGKESELVAAISRTAVSTYYADSVKGRFTISRDNAKNTVYLQMYSLKPEDTAVYYCAASHYHGYSLGYDYWGQGTQVTVSS | high polyreactivity

Sequence | polyreactivity (PSR sort gate)
QVQLVESGGGLVQAGGSLRLICAASGRIFTYNGMGWYRQAPGKERELVAAISSGGSTYADSVKGRFTISRDNAKNTVYLQMNSLKPEDTAVYYCAAVKGYQGSSYQRVDWEGDYWGQGTQVSVSS | low polyreactivity
HLHLPERVGGLVHAGGSLRLSSAASGYISWAGYMGWYRQPPGKERELVATISYGTSTSYADSVKGRFTISRDNAKNSVYLQMNSLKPEDSAVYYCNADWVFTWYDYPNDKYDYWGQGTQVTVSS | low polyreactivity
QVQLVESGGGLVQAGGSLRLSCAASGNTFGFYAMGWYRQAPGKERELVAGITSGDSTYYADSVKGRFTISRDNAKNTVYLQMNSLKPEDTAVYYCATAPYVTSRRYGPYEYWGQGTQGTVSS | low polyreactivity
QVQLVESGGGLVQAGGSLRLSCAASGGIFDSYAMGWYRQAPGKERELVAAISWSGDRTYYADSVKGRFTISRDNAKNTVYLQMISLKPEDTAVYYCAADDGYTYGEGYYWGQGTQVTVSS | high polyreactivity
QVQLVESGGGLVQAGGSLRLSCAASGITFGHYTMGWYRQAPGKEWDLVAAISWSGGSTYYADSVKGRFTISRDNAKYTVYLQMNSLKPEDTAVYYCNRVKRVIASYDSDYWGQGTQVTVSS | low polyreactivity
QVQLVESGGGLVQAGGSLRLSCAASGRTFSFYAMGWYRQAPGKERELVAAIRSDGGTTYYADSVKGRFTISRDNAKNTVYLQMNSLKPEDTAVYYCNTQSFYFVSYSSSRYLRYYWGQGTQVTVSS | low polyreactivity
QVQLVESGGGLVQAGGSLRLSCAASGLIFPYYAMGWYRQAHGKERELVAAITRRGGSTYYADSVKGRFTISRDNAKNTVYLQMNSLKPEDTAVYYCNKVDQGRYGYWGQGTQVTVSS | high polyreactivity
QVQLVESGGGLVQAGGSLRLSCAASGSTFPLYAMGLYRQAPGKERELVAAITGGGGRTYYADSVKGRFTISRDIAKNTVYLQMNSLKPEYTAVYYCNAVVYLTNYWYDYWAQGTQVTVSS | low polyreactivity
QVQLVESGGGLVQAGGSLRLSCAASGRTFDEYAMGWYRQAPGKERVLVAAIDSGGSTTYADSVKGRFTISRDNAKNTVYLQINSLKPEDTAVYYCAASYPYWYITPRKFEYWGQGTQVTVSS | low polyreactivity
QVQLVESGGGLVQAGGSLRLSCAASGRIFPYYAMGWSRQAPGKERELVAAITSGGTTYYADSVKGRFTISRDNAKNTVYLQMNSLKPEDTAVYYCEYDYWGQGTQVTVSS | low polyreactivity
QVQLVESGGGVVQAGGSLRLSCAASGSIFDGYARGWYRQAPGKERELVAAITRDGGSTHYADSVKGRFTISRDNAKNTVYLEMNSLKPEDTAVYYCASRDHAFRYYRNPFKGKYDYWGQGTQVTVSS | low polyreactivity
QVQLVESGGGLVQAGGSLRLSCAASGSTFRWNAMGWYRQAPGKETELVAAITRSVGSTYYADSVKGRFTISRDNAKNTVYLQMNSLKPEDTAVYYCAADFYYYGFDYWGQGTQVTVSS | low polyreactivity
QVQLVESGGGLVQAGGSLRLSCAASGITSSLNAMGWYRQAPGKERELVAAISWRGGSTYYADSVKGRFTISRDNAKNTVYLQMNSLKPEDTAVYYCAARSSYRKMDYWGQGTQVTVSS | high polyreactivity
QGQLVESGGGLVQAGGSRRLSCAASGYSIDNNAMGWYRQAPGKEREVVASITNSAGSTSYADSVKGRFTISRDTAKNTVYLQMNSLKPEDTAVCYCSAKRYHYFFQYSRSGAYGYWGHGTQVTVSS | high polyreactivity
QVQLVESGGGLVQAGGSLRLSCAASGFIFAYYAMGRYRQAPGKEREFVAVINWSGGITYYADSVKGRFTISRDNAKNTVYLQMNSLKPEDTAVYYCAADELAGYDYWGQGTQVTVSS | low polyreactivity
QVQLVESGGGLVQAGGSLRLSCAASGSIFGTYAMGWYRQAPGKERELVAAITSSGGSTYYADSVKGRFTISRDNAKNTVYLQMNSLKPEDTAVYYCAAYRRIRVGVPVRTYYYWGQGTQVTVSS | high polyreactivity
QVQLVESGGGLVQAGGSLRLSCAASGSIFSRNAMGWYRQAPGKERELVAAISRRGGSTYYADSVKGRFTISRDNAKITVYLQMNSLKPEDTAVYYCAAPFEAVRSYYWGQGTQVTVSS | high polyreactivity
QVQLVESGGGLVQAGGSLRLSCAASGSIFRYNTMGWYRQAPGKERELVASIRIGGSTFYADSVKGRFTISRDNAKNTVYLQMNSLKPEDTAVYYCAVRPYRSAGGSVTRGAYYYWGQGTQVTVSS | high polyreactivity
QVQLVESGGGLVQAGGSLRLSCAASGSTFGLYGMGWYRQAPGKERELVAAITYSGGGTYYADSVKGRFTISRDNAKNTVYLQMNSLKPEDTAVYYCAAEYYSSITGWYYYWGQGTQVTVSS | low polyreactivity
QVQLVESGVGLVQAGGSLRLSCAASGSIFDANTMGWYRQAPGKERELVAAITGSGASTYYADSVKGRFTISRDNAKNTVYLQMNSLKPEDSAVYYCAARRYTSYYKDGWYAYYYWGQGTQVTVSS | high polyreactivity
QVQLVESGGGLVQAGGSLRLSCAASGRTFYYYAMGWYRQAPGKEREYVASITWRGGRTYYADSVKGRFTISRDNAKNTVYLQMNSLKPEDTAVYYCAADGSYAIGGYGYWGQGTQVTVSS | high polyreactivity
